The text below walks through data of a protein production outcome set (Wang et al. 2014).

A short description of the data set: label from the status in PepcDB records.
For the sequence “MSDAVEEAEARAVEPVGAKQRDAFISYSQSKNAPLAKQLQRGLERLAVSRFRPMRMSVFRDVTSLPANHDLWQSIQRELARSRYFILLASPEAAASPWVAREVDYWLRERDTEHLLIAVASGEIVWDDRAGDFDWRKTTSLPRNLAGHFTAAPLWVDLREIGERSHHSMRYPPFRAAVATLASPLHGRPKEELEHDDFRQLRFVKRLSWSGVALLVALLVLAVYGFFDASRQREAALSQARTSASQALAARSGQLLGTSPNQAAQYALYAEETRSTPESRRALAQAVTAAPYARRRLRADADSVTDMQGASRPAATDVVLSGDGTTAAYRSVFDDDRAVRLYDVPSARQSRVVRAEGTPRALSRDGRVLAMEVYLNRVQLWDTRSGRLLSTMATGHTENLPHVGHGLHALALSPDGRWVAASHYTPEGEAFAVVWRASDGREITRVPVSDARVGLGFSADGSRLTLVDQDRREVREFRTDSARWEAARSLPGMPGSTAEALRYSEVLLFDGARKALTRTSERAEVWDLEQRRRIAVRSLGPYEDMTVADDKGIFLLGGQDGTVRLYDAALRPGTTLGRLTRPASTIAMSADGTQVVVASYGGELNLFTTGVRRGQQVAFDEKDFTFGDLTPDGRMAVHRSEGRTEFWDPATGRRLGVIPYANLSVNLEDTAYTLSGDKRYVGMQSVEGFEDEGRFDVWDLRTGRRTDCGTAVGGSSFSPIRRPGLSFLPGDRYVVGEWNGAVELLDTRTCTRSTVTEDSGRFALSGDRRTLVLLNDDGVDTWRWDGDHAFARAARTTLPSEAHPVDMSVDHEGRQAAFSDRESHVYVVRLDSGERVRATGYLPDKTDAVAFSRDGRLLFQGFMTESTRGVRVLDAGSGDQLDIWTTDPPTGSVQPNEGMQVVPGPADDILTLGPDHKVVRRTVGVGAWHDLLCGLVSQPLPARERDRYLKDLDVEDPCR”, the protein production result was “failed”.

“MSDDNSHSSDTVNSKKGFFSLLLSQLFHGEPKNRDELLALIRDSGQNELIDEDTRDMLEGVMDIADQRVRDIMIPRSQMITLKRNQTLDECLDVIIESAHSRFPVISEDKDHIEGILMAKDLLPFMRSDAEAFSMDKVLRTAVVVPESKRVDRMLKEFRSQRYHMAIVIDEFGGVSGLVTIEDILELIVGEIEDEYDEEDDIDFRQLSRHTWTIRALASIEDFNDAFGTHFSDEEVDTIGGLVMQAFGHLPARGETIDIDGYQFKVAMADSRRIIQVHVRIPDDSPQPKLDE”: the protein production result is listed as “not failed”.

On to “MSDEWIKIFESDFYVREMIKVWDEGEKWANWIDEVVSKYKLEKKVLDIPCGIGRVSYFLANRGYKVTGIDISERMISMARSNIQNGKFIVGDMRKIKEIIGNEKYDLVINIYNSLGYYSEEDDLKILESLRDSTRKIVVINLDNRDYIIYNRPNEYYTYIPPYLVYSKVEFEQETSRLKIYRKYYLNDKEVGEMIYEQRLYSIHEILALLKKAGLQPIEVLSGYSWKKFSIMDPEMTIIATPA”, for which the protein production result was “failed”.

Consider “MSDFNLVGVIRVMPTDPDVNLDELEEKLKKVIPEKYGLAKVEREPIAFGLVALKFYVLGRDEEGYSFDEVAEKFEEVENVESAEVETVSRI”, for which the protein production result is “not failed”.

On to “MSDFVNGFWSYFIGIIAIGGIVWCVWLLYSQRRWLSTRPAGGVVEDTGHVWDGDLTELNNPVPRWWTWMYLLTCVFALGYLVLFPGVGSYQGTLGYTSVGEVKQKQAELAERVKPVYERFGGMTPEQLVADAPAREIGQRLFLNTCAQCHGSDAKGSTSFPNLTDGDWLYGGTPEIIAETIAKGRHGVMPPWKGVIDPRMAGDIAHYVRSLSGLAVDPVRVFRGKREFANYCVACHGVDAKGNQALGAPNLTDDVWLYGSSEASIVRTILDGRDNRMPAHEEVLTPEQIKLLSAWVWGLSNQAPAKAAEAAR”, for which the protein production result is listed as “failed”.

For the sequence “MSDGIPFAGEPADSHEAIMRATFRALREYGYAGLSIQRIADEADLSKSTFYHHFDGKEDLLLSFQEFILTEFNRIFQIESTGDPEQDIKTFVSLILDDFPDCVETPTKNAVLGSYVEMRAQAVQNPDFREKFTETDELFARQLVQIIEDGIEQGVFADVDPDTVSRFMITILDGVILQSATRNDNPVAEVRDTIDEYIEETLILNT”, the protein production entry is given as “failed”.

In the case of “MSDHEVTGGVSLKERVAIVLVEPQSPGNVGMVCRAMKNMGLGELRIVKGCRLDHPEALKFAVSARDLLERARVFESLEDALSDTELSVATTRRHGKYRQEIFSPKEIVSKFAANLAGNRAALVFGREDNGLTTDELSLCRWHATIPSSEEYGSLNLAQAVMVFCYELFTSLGSRTVGGEDRPLAGSAETEPLFEHMERTLMRIGYLNPQNPAHLMRSLRRIFARSELDSREVAILRGMMTQIDWAADQFKGKKGA”, the protein production entry was “failed”.

“MSDHFSIIKFDIGNSTMNAERKFLFACLIFALAIYAIHAFGLFDLLTDLPHLQTLIRQSGLFGYSLYILLFIIATLFLLPGSILVIAGGIVFGPFLGTLLSLIAATLASSCSFLLARWMGRDLLLKYVGHSHTFQAIEKGIARNGIDFLILTRLIPLFPYNIQNYAYGLTTIAFWPYTLISALTTLPGIVIYTVMASDLANEGITLRFILQLCLAGLALFILVQLAKLYARHKHVDLSASRRNPLTHPKNEG”: the protein production result is “failed”.

On to “MSDHKAVHSVQAKAEGKTLVMERSFEAPRELVFKAFSGSVHLESWWGPKGWQTANSRFEFQPDGVWLYCMECRDQNQGEFYGRKSCGKAVFQEIAAPEKIVYTDMFTDEEGNVVPGMPEILNEVYFQERDVGTKLITRSHFSSPKELQQLLDKGMVEGFSSQLERLEDYLKAIR”, for which the protein production entry is listed as “failed”.

“MSDIRMRADIAADGLTDRPPDRLADEPAEELSHGLLEGLSKEPADELADSPFLLDEPPDYFEDFLLFIFTLMKTTSCLGVAKTTHKLFLCVEPTKEKVAFSDKATSFSAPIEILLFNLDPPSIQGYLRRPLSLKDLHISSARIIDAPLLKPNG”: the protein production result was “failed”.

Take “MSDKFHILLLNGPNLNLLGTREPEKYGYTTLAEIVSQLEIQAQGMDVALSHLQSNAEHALIDSIHQARGNTDFILINPAAFTHTSVALRDALLGVQIPFIEIHLSNVHAREPFRHHSYLSDIAVGVICGLGADGYNFALQAAVNRLSKSN”: the protein production result is recorded as “not failed”.

For the sequence “MSDNNDRMYELEYPSPEVSGQTAGGPTLIVALQGYADAGHAVESSSSHLMDALDHRLIASFNNDELIDYRSRRPVVVIEHNEVTSMDELNLGLHVVRDNDNKPFLMLSGPEPDLRWGDFSNAVVDLVEKFGVENTICLYAAPMTVPHTRPTVVTAHGNSTDRLKDQVSLDTRMTVPGSASLMLEKLLKDKGKNVSGYTVHVPHYVSASPYPAATLKLLQSIADSADLNLPLLALERDAEKVHRQLMEQTEESSEIQRVVGALEQQYDSE”, the protein production entry is reported as “not failed”.

On to “MSDPAEVPTASPLLETVGLACERDWRMLFERLDLRLAAGEMLQVVGPNGSGKTSLLRLLSGLMQPTAGEVRLNGRPLAEQRGELARSLLWIGHAAGIKGLLSAEENLTWLCALHQPASREAIWQALADVGLRGFEDVPCHTLSAGQQRRVALARLYLDAPPLWILDEPFTALDKQGVAQLETHLAGHCQRGGMVVLTTHHSLQQVPAGYRELDLGALKAASGATVEPALGDPA”, for which the protein production result is “failed”.

With “MSDRDSWISNLGFVLAAVGGAAGLGNIWRFPWLTAGNGGSAFLIVYLLVVVGIGVPGLLAEFVLGRCGRQTPTAALRSLTGSRWGSWLGAFNVLTTLVILSFYSVVGGWILRYTLVSPVGTYFGQPQQYFGAMSFGLEAVAFHLLFLGIVAAIVFFGISNGIERVSKVMLPGVVIILLGLAVWTATQPGTAAGYAFYLSFDAEYLAANFLSVIGPAAGQALFTLSLGAGVMLTYASYLDDNASLPRDTLVIAVSNTFIGVLAGLVVIPLLFSQGVDPGQGGPGALFVALATAFATLPGGELVATAFFVTVLMAAVTSGISLLETPVATLVDSFGVPRRRATVLVSVLLAATGSGLALTSSVFQFVSGTLADLMLTVGLFAFTVIVGWLLRGDALAEFRAGTARFEWLAKPWLLTVSWVLPVVVLFLLTNTLASLAGISVGLGGRVIIAVIGTVALAVVVRNGSRTDRLSSH”, the protein production result is recorded as “failed”.

For “MSDRIASEKLRSKLMSADEAAQFVNHGDKVGFSGFTGAGYPKALPTAIANRAKEAHGAGNDYAIDLFTGASTAPDCDGVLAEADAIRWRMPYASDPIMRNKINSGSMGYSDIHLSHSGQQVEEGFFGQLNVAVIEITRITEEGYIIPSSSVGNNVEWLNAAEKVILEVNSWQSEDLEGMHDIWSVPALPNRIAVPINKPGDRIGKTYIEFDTDKVVAVVETNTADRNAPFKPVDDISKKIAGNFLDFLESEVAAGRLSYDGYIMQSGVGNVPNAVMAGLLESKFENIQAYTEVIQDGMVDLIDAGKMTVASATSFSLSPEYAEKMNNEAKRYRESIILRPQQISNHPEVIRRVGLIATNGLIEADIYGNVNSTNVSGSRVMNGIGGSGDFTRNGYISSFITPSEAKGGAISAIVPFASHIDHTEHDVMVVISEYGYADLRGLAPRERVAKMIGLAHPDYRPLLEEYYARATSGDNKYMQTPHDLATAFDFHINLAKNGSMKA”, the protein production entry is listed as “not failed”.

Turning to “MSDSAEMQQPELLLKSMNKLNGYHPQLIIPKKTLFKCDLDDKQSRLQVSSMHMENSGFLTEDEKRTIEAQKMKKRRTAGLRVAFIDPESQQYVLELHKWTKSYAFVKGWNKVVDKNDKTFKVGDVFSLWVFRCGGVNPVHDGVNLSGGHADSVVDGLEQGSLCFVLVPAKVSVHDGNLPQDSGHDGHNDNLPQDSVEPSSFFDESYELNHLFFDQEDSQGYLPDEDEDFGFNDDGSIRDSGHYQ”, the protein production entry is “failed”.

As to “MSDSATEYDKLFIGGKWTKPSTSDVIEVRCPATGEYVGKVPMAAAADVDAAVAAARAAFDNGPWPSTPPHERAAVIAAAVKMLAERKDLFTKLLAAETGQPPTIIETMHWMGSMGAMNYFAGAADKVTWTETRTGSYGQSIVSREPVGVVGAIVAWNVPLFLAVNKIAPALLAGCTIVLKPAAETPLTANALAEVFAEVGLPEGVLSVVPGGIETGQALTSNPDIDMFTFTGSSAVGREVGRRAAEMLKPCTLELGGKSAAIILEDVDLAAAIPMMVFSGVMNAGQGCVNQTRILAPRSRYDEIVAAVTNFVTALPVGPPSDPAAQIGPLISEKQRTRVEGYIAKGIEEGARLVCGGGRPEGLDNGFFIQPTVFADVDNKMTIAQEEIFGPVLAIIPYDTEEDAIAIANDSVYGLAGSVWTTDVPKGIKISQQIRTGTYGINWYAFDPGSPFGGYKNSGIGRENGPEGVEHFTQQKSVLLPMGYTVA”, the protein production result was “not failed”.

In the case of “MSDSKSHDPNQMTGAAMIVRAMIDHGVEHIFGYPGGSVLPIYDELFQNSEKLQHILVRHEQGAGHAAEGYARSTGKPGVVLVTSGPGATNMVTPLADALMDSIPIVCITGQVPTHLIGNDAFQECDTVGITRPCTKHNWLVRDIKDLARVLHEAFYVATSGRPGPVVVDVPKDVQFATGTYHPPRKSDVHVSYTPRLKGDPGQIRKAVALLASAKKPVIYSGGGVVNSGEEAWKLLRELVEVTDFPITSTLMGLGAYPASGKNWLGMLGMHGTYESNMTMHDCDVMLCIGARFDDRITGRTDAFSPNSKKIHIDIDPSSINKNIRVDVPIIGDVAHVLADLLAAFKAEAKKADTKAWWLQIAAWRGRNSLAYKKNNDVILPQYAIERLYAATRGRDTYITTEVGQHQMWAAQFYGFERPRRWMTSGGLGTMGYGLPAALGVQVAHPDSLVIDIAGDASVQMTMQEMATAVQYELPIKIFILNNQYMGMVRQWQQLLHGNRLSHSYTEAMPDFVKLADAYGGVGMQVFKPSDLDGAIQDMIKVKKPVLFDCRVASLENCFPMIPSGKAHNEMLLPSEANDETTAAAFAGGGALV”, the protein production entry is listed as “failed”.

For “MSDSLFLSLAKFDVILSGSTNSNILHDVMGQVIDRSEIQDLNANNKPTKKIDFHLRDQHDTRLACILWGKYAEIVDKACQESTDGIVVCLIRFAKINLYNDTRSVSNFFDVSQVFVDPTLAELDLFKQSIP”, the protein production entry is recorded as “failed”.

Regarding “MSDTVLTGLLDTVWQQFGRGTKDRHHPARHPTLATIGTDGPDLRTLVLRAASHAEATLEFHTDAASPKVAHIRRDARVAIHIWIPKASLQVRAKAIAKILPGDPNLFAQLPEAARMNYQGPVPGTPLPAEPDATPNRFTRLICHLSEIDVLHLTTPHQRAVYTAPDWRGIWVSP”, the protein production entry is listed as “not failed”.
